Residue numbers refer to the chain shown, from its start. Names and notes keep the numbering of the source.
B1: human CEACAM1 IgV domain, wild type (tagless hCEACAM1 IgV domain) (receptor)
chain: QLTTESMPFNVAEGKEVLLLVHNLPQQLFGYSWYKGERVDGNRQIVGYAIGTQQATPGPANSGRETIYPNASLLIQNVTQNDTGFYTLQVIKSDLVNEEATGQFHVYP
notes: also called hCEACAM1 WT; WT
B2: hCEACAM1 IgV domain variant D40R (receptor)
chain: B1 chain with D40R
notes: also called hCEACAM1 D40R
B3: hCEACAM1 IgV domain mutant I91A (receptor)
chain: B1 chain with I91A
notes: also called hCEACAM1 I91A
B4: hCEACAM1 IgV domain mutant V39A (receptor)
chain: B1 chain with V39A
notes: also called hCEACAM1 V39A
B5: hCEACAM1 IgV domain variant R38D/G41S (receptor)
chain: B1 chain with R38D, G41S
notes: also called R38D G41S monomer
B6: hCEACAM1 IgV domain variant R38D (receptor)
chain: B1 chain with R38D
notes: also called tagless R38D; hCEACAM1 R38D
B7: hCEACAM1 IgV domain variant Q89H (receptor)
chain: B1 chain with Q89H
notes: also called tagless Q89H; hCEACAM1 Q89H

What was measured:
[1] = target: the molecule itself; test: PDB-PISA analysis of the dimer crystal structure
[2] = target: the molecule itself; test: DSF and SEC-MALS (FIGS. 14B and 14C)
[3] = target: B1; test: structure of the heterodimer (FIG. 10C)
[4] = target: B1; test: PDB-PISA analysis of the dimer crystal structure
[5] = target: B1; test: ELISA binding assay, tagless hCEACAM1 IgV protein added to WT hCEACAM1; signal given as fold response relative to WT

Binder: B1
PDB dimer formation score (PDB-PISA) [1]: 0.89

Binder: B2
PDB dimer formation score (PDB-PISA) [1]: 0.93

Binder: B3
binding result [2]: binds

Binder: B4
binding result [2]: binds

Binder: B5
binding result [3]: binds

Binder: B6
PDB dimer formation score (PDB-PISA) [4]: 0.91

Binder: B7
binding result [5]: binds | PDB dimer formation score (PDB-PISA) [1]: 0.96

Source: patent publication US20260193309A1 (BRIGHAM AND WOMEN S HOSPITAL, published 2026)
